B1: PPEF2 (parent)
chain: AFKAAALIQRWYRRYVARLEMRRR
B2: C8orf76 (parent)
chain: LYLQLAICSSLQNLEKTIFCLQKL

Variants of: B1
Experiment: protein stability index of a GFP-peptide fusion (GPS, HEK-293T) (PSI 1-6); higher = more stable
Conditions: c terminus: a fixed tail appended
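Also: lentivirally expressed fusions sorted by FACS into six bins by GFP to DsRed ratio, PSI derived from sequencing read proportions per bin multiplied by bin number.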

Variant	protein stability index
AFKAFALIQRWYRRYVARLEMRRR [A5F]	1.98
AFKAQALIQRWYRRYVARLEMRRR [A5Q]	1.85
AFKARALIQRWYRRYVARLEMRRR [A5R]	2.39
AFKAEALIQRWYRRYVARLEMRRR [A5E]	4.4
AFKAGALIQRWYRRYVARLEMRRR [A5G]	2.94
AFKAPALIQRWYRRYVARLEMRRR [A5P]	2.08
AFKAHALIQRWYRRYVARLEMRRR [A5H]	2.67
AFKATALIQRWYRRYVARLEMRRR [A5T]	2.55
AFKAIALIQRWYRRYVARLEMRRR [A5I]	2.4
AFKANALIQRWYRRYVARLEMRRR [A5N]	2.11
AFKAAAFIQRWYRRYVARLEMRRR [L7F]	3.21
AFKAAANIQRWYRRYVARLEMRRR [L7N]	2.64
AFKAAARIQRWYRRYVARLEMRRR [L7R]	5.03
AFKAAAIIQRWYRRYVARLEMRRR [L7I]	4.77
AFKAAAAIQRWYRRYVARLEMRRR [L7A]	4.83
AFKAAATIQRWYRRYVARLEMRRR [L7T]	4.39
AFKAAAGIQRWYRRYVARLEMRRR [L7G]	2.33
AFKAAASIQRWYRRYVARLEMRRR [L7S]	2.93
AFKAAAMIQRWYRRYVARLEMRRR [L7M]	2.25
AFKAAAQIQRWYRRYVARLEMRRR [L7Q]	4.96
AFKAAPLIQRWYRRYVARLEMRRR [A6P]	1.95
AFKAATLIQRWYRRYVARLEMRRR [A6T]	4.02
AFKAAVLIQRWYRRYVARLEMRRR [A6V]	4.97
AFKAAELIQRWYRRYVARLEMRRR [A6E]	3.81

Variant	protein stability index
AFKAACLIQRWYRRYVARLEMRRR [A6C]	4.25
AFKAALLIQRWYRRYVARLEMRRR [A6L]	2.5
AFKAAQLIQRWYRRYVARLEMRRR [A6Q]	3.88
AFKAAKLIQRWYRRYVARLEMRRR [A6K]	2.83
AFKAAYLIQRWYRRYVARLEMRRR [A6Y]	1.75
AFKAAFLIQRWYRRYVARLEMRRR [A6F]	2.77
AFKAADLIQRWYRRYVARLEMRRR [A6D]	3.14
AFKAAALHQRWYRRYVARLEMRRR [I8H]	2.16
AFKAAALSQRWYRRYVARLEMRRR [I8S]	4.29
AFKAAALKQRWYRRYVARLEMRRR [I8K]	3.15
AFKAAALLQRWYRRYVARLEMRRR [I8L]	3.02
AFKAAALYQRWYRRYVARLEMRRR [I8Y]	2.19
AFKAAALRQRWYRRYVARLEMRRR [I8R]	3.09
AFKAAALAQRWYRRYVARLEMRRR [I8A]	2.38
AFKAAALVQRWYRRYVARLEMRRR [I8V]	3.41
AFKAAALCQRWYRRYVARLEMRRR [I8C]	3.52
AFKAAALFQRWYRRYVARLEMRRR [I8F]	2.29
AFKAAALTQRWYRRYVARLEMRRR [I8T]	2.37
AFKAAALNQRWYRRYVARLEMRRR [I8N]	2.98
AFKAAALMQRWYRRYVARLEMRRR [I8M]	1.94
AFKAAALDQRWYRRYVARLEMRRR [I8D]	3.02
WFKAAALIQRWYRRYVARLEMRRR [A1W]	1.77
CFKAAALIQRWYRRYVARLEMRRR [A1C]	3.54
IFKAAALIQRWYRRYVARLEMRRR [A1I]	3.77

Variant	protein stability index
PFKAAALIQRWYRRYVARLEMRRR [A1P]	3.44
EFKAAALIQRWYRRYVARLEMRRR [A1E]	4.09
MFKAAALIQRWYRRYVARLEMRRR [A1M]	3.01
NFKAAALIQRWYRRYVARLEMRRR [A1N]	3.6
QFKAAALIQRWYRRYVARLEMRRR [A1Q]	3.52
LFKAAALIQRWYRRYVARLEMRRR [A1L]	4.05
TFKAAALIQRWYRRYVARLEMRRR [A1T]	3.4
HFKAAALIQRWYRRYVARLEMRRR [A1H]	2.59
RFKAAALIQRWYRRYVARLEMRRR [A1R]	3.66
FFKAAALIQRWYRRYVARLEMRRR [A1F]	2.62
GFKAAALIQRWYRRYVARLEMRRR [A1G]	2.17
DFKAAALIQRWYRRYVARLEMRRR [A1D]	2.36
VFKAAALIQRWYRRYVARLEMRRR [A1V]	3.96
AFKAAALIARWYRRYVARLEMRRR [Q9A]	3.25
AFKAAALICRWYRRYVARLEMRRR [Q9C]	2.71
AFKKAALIQRWYRRYVARLEMRRR [A4K]	3.27
AFKGAALIQRWYRRYVARLEMRRR [A4G]	3.69
AFKPAALIQRWYRRYVARLEMRRR [A4P]	2.38
AFKRAALIQRWYRRYVARLEMRRR [A4R]	3.46
AFKVAALIQRWYRRYVARLEMRRR [A4V]	2.55
AFKFAALIQRWYRRYVARLEMRRR [A4F]	3.17
AFKSAALIQRWYRRYVARLEMRRR [A4S]	2.13
AFKMAALIQRWYRRYVARLEMRRR [A4M]	2.25
AFKCAALIQRWYRRYVARLEMRRR [A4C]	3.15

Variant	protein stability index
AFLAAALIQRWYRRYVARLEMRRR [K3L]	1.75
AFFAAALIQRWYRRYVARLEMRRR [K3F]	2.38
AFSAAALIQRWYRRYVARLEMRRR [K3S]	4.09
AFYAAALIQRWYRRYVARLEMRRR [K3Y]	2.87
AFIAAALIQRWYRRYVARLEMRRR [K3I]	2.66
AFRAAALIQRWYRRYVARLEMRRR [K3R]	3.84
AFEAAALIQRWYRRYVARLEMRRR [K3E]	3.71
AFCAAALIQRWYRRYVARLEMRRR [K3C]	1.86
AFDAAALIQRWYRRYVARLEMRRR [K3D]	2.27
AWKAAALIQRWYRRYVARLEMRRR [F2W]	3.79
ARKAAALIQRWYRRYVARLEMRRR [F2R]	3.76
AEKAAALIQRWYRRYVARLEMRRR [F2E]	4.95
AGKAAALIQRWYRRYVARLEMRRR [F2G]	2.87
ADKAAALIQRWYRRYVARLEMRRR [F2D]	3.53
AKKAAALIQRWYRRYVARLEMRRR [F2K]	3.04
AMKAAALIQRWYRRYVARLEMRRR [F2M]	3.8
ANKAAALIQRWYRRYVARLEMRRR [F2N]	3.3
AYKAAALIQRWYRRYVARLEMRRR [F2Y]	3.46
ALKAAALIQRWYRRYVARLEMRRR [F2L]	3.99
APKAAALIQRWYRRYVARLEMRRR [F2P]	3.78
AAKAAALIQRWYRRYVARLEMRRR [F2A]	3.87

Variants of: B2
Experiment: as above
Conditions: c terminus: a fixed tail appended

Variant	protein stability index
LYLQLAICSSLQNLEKPIFCLQKL [T17P]	1.98
LYLQLAICSSLQNLEKYIFCLQKL [T17Y]	3.47
LYLQLAICSSLQNLEKWIFCLQKL [T17W]	4.22
LYLQLAICSSLQNLEKVIFCLQKL [T17V]	2.84
LYLQLAICSSLQNLEKQIFCLQKL [T17Q]	3.45
LYLQLAICSSLQNLEKNIFCLQKL [T17N]	2.46
LYLQLAICSSLQNLEKTPFCLQKL [I18P]	4.2
LYLQLAICSSLQNLEKTWFCLQKL [I18W]	3.03
LYLQLAICSSLQNLEKTFFCLQKL [I18F]	2.57
LYLQLAICSSLQNLEKTHFCLQKL [I18H]	2.6
LYLQLAICSSLQNLEKTRFCLQKL [I18R]	2.41
LYLQLAICSSLQNLEKTYFCLQKL [I18Y]	2.94
LYLQLAICSSLQNLEKTKFCLQKL [I18K]	2.22
LYLQLAICSSLQNLEKTLFCLQKL [I18L]	2.46
LYLQLAICSSLQNLEKTQFCLQKL [I18Q]	2.44
LYLQLAICSSLQNLEKTMFCLQKL [I18M]	1.11
LYLQLAICSSLQNLEKTEFCLQKL [I18E]	1.79
LYLQLAICSSLQNLEKTNFCLQKL [I18N]	5.27
LYLQLAICSSLQNLEKTIFCLQNL [K23N]	2.11
LYLQLAICSSLQNLEKTIFCLQYL [K23Y]	3.53
LYLQLAICSSLQNLEKTIFCLQTL [K23T]	2.15
LYLQLAICSSLQNLEKTIFCLQGL [K23G]	3.17
LYLQLAICSSLQNLEKTIFCLQDL [K23D]	2.02
LYLQLAICSSLQNLEKTIFCLQML [K23M]	1.58

Variant	protein stability index
LYLQLAICSSLQNLEKTIFCLQRL [K23R]	3.49
LYLQLAICSSLQNLEKTIFCLQPL [K23P]	2.54
LYLQLAICSSLQNLEKTIFCLQFL [K23F]	2.92
LYLQLAICSSLQNLEKTIFCLQWL [K23W]	3.62
LYLQLAICSSLQNLEKTIFCLQSL [K23S]	1.89
LYLQLAICSSLQNLEKTIFCLQIL [K23I]	2.72
LYLQLAICSSLQNLEKTIFCLQQL [K23Q]	4.24
LYLQLAICSSLQNLEKTIFCLQLL [K23L]	2.27
LYLQLAICSSLQNLEKTIFCLIKL [Q22I]	1.46
LYLQLAICSSLQNLEKTIFCLVKL [Q22V]	2.58
LYLQLAICSSLQNLEKTIFCLNKL [Q22N]	2.31
LYLQLAICSSLQNLEKTIFCLFKL [Q22F]	3.5
LYLQLAICSSLQNLEKTIFCLDKL [Q22D]	2.46
LYLQLAICSSLQNLEKTIFCLSKL [Q22S]	1.58
LYLQLAICSSLQNLEKTIFCLKKL [Q22K]	3.39
LYLQLAICSSLQNLEKTIFCLCKL [Q22C]	2.56
LYLQLAICSSLQNLEKTIFCLMKL [Q22M]	3.12
LYLQLAICSSLQNLEKTIFCLPKL [Q22P]	2.69
LYLQLAICSSLQNLEKTIFCLTKL [Q22T]	3.32
LYLQLAICSSLQNLEKTIFCLWKL [Q22W]	1.93
LYLQLAICSSLQNLEKTIFCGQKL [L21G]	3.2
LYLQLAICSSLQNLEKTIFCNQKL [L21N]	2.25
LYLQLAICSSLQNLEKTIFCYQKL [L21Y]	3.14
LYLQLAICSSLQNLEKTIFCFQKL [L21F]	3.62

Variant	protein stability index
LYLQLAICSSLQNLEKTIFCEQKL [L21E]	1.42
LYLQLAICSSLQNLEKTIFCAQKL [L21A]	2.77
LYLQLAICSSLQNLEKTIFCRQKL [L21R]	2.08
LYLQLAICSSLQNLEKTIFCDQKL [L21D]	2.09
LYLQLAICSSLQNLEKTIFCCQKL [L21C]	2.88
LYLQLAICSSLQNLEKTIFCPQKL [L21P]	3.85
LYLQLAICSSLQNLEKTIFCSQKL [L21S]	2.59
LYLQLAICSSLQNLEKTIFCHQKL [L21H]	2.76
LYLQLAICSSLQNLEKTIECLQKL [F19E]	1.81
LYLQLAICSSLQNLEKTICCLQKL [F19C]	2.27
LYLQLAICSSLQNLEKTINCLQKL [F19N]	3.32
LYLQLAICSSLQNLEKTIKCLQKL [F19K]	3.04
LYLQLAICSSLQNLEKTITCLQKL [F19T]	1.71
LYLQLAICSSLQNLEKTIWCLQKL [F19W]	2.24
LYLQLAICSSLQNLEKTIMCLQKL [F19M]	3.62
LYLQLAICSSLQNLEKTIGCLQKL [F19G]	2.83
LYLQLAICSSLQNLEKTILCLQKL [F19L]	3.21
LYLQLAICSSLQNLEKTIVCLQKL [F19V]	2
LYLQLAICSSLQNLEKTIYCLQKL [F19Y]	4.28
LYLQLAICSSLQNLEKTIACLQKL [F19A]	2.89
LYLQLAICSSLQNLEKTIICLQKL [F19I]	2.8
LYLQLAICSSLQNLEKTIFCLQKE [L24E]	1.75
LYLQLAICSSLQNLEKTIFCLQKP [L24P]	4.07
LYLQLAICSSLQNLEKTIFCLQKQ [L24Q]	3.56

Variant	protein stability index
LYLQLAICSSLQNLEKTIFCLQKC [L24C]	3.89
LYLQLAICSSLQNLEKTIFCLQKK [L24K]	3.43
LYLQLAICSSLQNLEKTIFCLQKS [L24S]	1.49
LYLQLAICSSLQNLEKTIFCLQKD [L24D]	4.2
LYLQLAICSSLQNLEKTIFCLQKA [L24A]	2.13
LYLQLAICSSLQNLEKTIFCLQKW [L24W]	2.79
LYLQLAICSSLQNLEKTIFCLQKI [L24I]	2.35
LYLQLAICSSLQNLEKTIFCLQKF [L24F]	3.39
LYLQLAICSSLQNLEKTIFKLQKL [C20K]	2.36
LYLQLAICSSLQNLEKTIFPLQKL [C20P]	1.88
LYLQLAICSSLQNLEKTIFYLQKL [C20Y]	2.18
LYLQLAICSSLQNLEKTIFTLQKL [C20T]	2.13
LYLQLAICSSLQNLEKTIFELQKL [C20E]	1.86
LYLQLAICSSLQNLEKTIFGLQKL [C20G]	3.1
LYLQLAICSSLQNLEKTIFILQKL [C20I]	2.15
LYLQLAICSSLQNLEKTIFMLQKL [C20M]	1.94
LYLQLAICSSLQNLEKTIFWLQKL [C20W]	2.66
LYLQLAICSSLQNLEKTIFFLQKL [C20F]	2.83
LYLQLAICSSLQNLEKTIFALQKL [C20A]	2.85
LYLQLAICSSLQNLEKTIFHLQKL [C20H]	3.83
LYLQLAICSSLQNLEKTIFRLQKL [C20R]	3.09
LYLQLAICSSLQNLEKTIFVLQKL [C20V]	3.44
LYLQLAICSSLQNLEKTIFDLQKL [C20D]	2.93

— the supplement of paper PMC10567573
